Source: article PMC9482650, “Quantitative fragmentomics allow affinity mapping of interactomes” (Nature Communications, 2022)
One block for each binder: values may come before it.

What was measured:
Experiment in all cases: holdup assay
Parameters in all cases: key: below the threshold = too weak to quantify, mostly under pKd 3.1 to 4
Conditions in all cases: plain residues with an end cap or a label only (N-terminal biotin on a linker: ttds)
PTPN3, P26045 = target: PTPN3, P26045
PDZRN4_1, Q6ZMN7 = target: PDZRN4_1, Q6ZMN7
LNX2_2, Q8N448 = target: T1, LNX2_2, Q8N448
T1 sequence (Q8N448 334-432, limits assumed, looked up): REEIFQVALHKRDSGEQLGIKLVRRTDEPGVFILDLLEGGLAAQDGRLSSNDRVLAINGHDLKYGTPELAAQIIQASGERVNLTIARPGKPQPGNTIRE

DLG4_2, P78352 = target: DLG4_2, P78352
Inadl_8, Q8NI35 = target: Inadl_8, Q8NI35
SNTG1, Q9NSN8 = target: T2, SNTG1, Q9NSN8
T2 sequence (Q9NSN8 52-150, limits assumed, looked up): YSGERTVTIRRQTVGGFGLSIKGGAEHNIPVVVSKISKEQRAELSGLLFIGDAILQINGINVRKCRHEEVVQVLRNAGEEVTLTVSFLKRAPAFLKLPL

GORASP1, Q9BQQ3 = target: GORASP1, Q9BQQ3
FRMPD3, Q5JV73 = target: FRMPD3, Q5JV73
NHERF3_4, Q5T2W1 = target: T3, NHERF3_4, Q5T2W1
T3 sequence (Q5T2W1 373-468, limits assumed, looked up): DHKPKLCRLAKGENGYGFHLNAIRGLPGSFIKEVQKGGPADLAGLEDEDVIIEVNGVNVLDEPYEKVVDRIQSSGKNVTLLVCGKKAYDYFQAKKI

MPP2, Q14168 = target: T4, MPP2, Q14168
T4 sequence (Q14168 180-250, limits assumed, looked up): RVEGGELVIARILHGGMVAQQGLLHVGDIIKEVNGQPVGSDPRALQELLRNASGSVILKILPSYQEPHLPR

GORASP2, Q9H8Y8 = target: GORASP2, Q9H8Y8
RHPN1, Q8TCX5 = target: T5, RHPN1, Q8TCX5
T5 sequence (Q8TCX5 508-602, limits assumed, looked up): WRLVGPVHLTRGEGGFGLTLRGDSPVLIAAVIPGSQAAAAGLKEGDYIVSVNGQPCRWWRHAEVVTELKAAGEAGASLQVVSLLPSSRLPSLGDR

MAST1, Q9Y2H9 = target: MAST1, Q9Y2H9
DFNB31_3, Q9P202 = target: T6, DFNB31_3, Q9P202
T6 sequence (Q9P202 811-907, limits assumed, looked up): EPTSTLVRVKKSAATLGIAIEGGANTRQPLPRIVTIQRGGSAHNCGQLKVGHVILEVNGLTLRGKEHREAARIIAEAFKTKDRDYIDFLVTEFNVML

MAGI2_3, Q86UL8 = target: MAGI2_3, Q86UL8
DLG3_2, Q92796 = target: T7, DLG3_2, Q92796
T7 sequence (Q92796 221-321, limits assumed, looked up): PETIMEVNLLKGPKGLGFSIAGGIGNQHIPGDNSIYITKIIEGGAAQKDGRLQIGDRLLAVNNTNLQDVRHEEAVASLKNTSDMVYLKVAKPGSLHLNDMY

TJP1_2, Q07157 = target: TJP1_2, Q07157
SHANK1, Q9Y566 = target: T8, SHANK1, Q9Y566
T8 sequence (Q9Y566 658-767, limits assumed, looked up): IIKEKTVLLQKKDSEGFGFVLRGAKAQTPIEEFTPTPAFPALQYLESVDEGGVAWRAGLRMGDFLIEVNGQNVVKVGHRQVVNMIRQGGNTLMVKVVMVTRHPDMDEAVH

LNX1_1, Q8TBB1 = target: LNX1_1, Q8TBB1
DLG4_1, P78352 = target: DLG4_1, P78352
LIN7C, Q9NUP9 = target: T9, LIN7C, Q9NUP9
T9 sequence (Q9NUP9 88-185, limits assumed, looked up): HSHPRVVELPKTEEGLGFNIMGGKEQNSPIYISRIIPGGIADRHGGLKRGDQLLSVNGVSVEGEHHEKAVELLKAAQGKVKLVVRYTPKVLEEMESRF

NHERF4_2, Q86UT5 = target: NHERF4_2, Q86UT5
SYNJ2BP, P57105 = target: T10, SYNJ2BP, P57105
T10 sequence (P57105 8-110, limits assumed, looked up): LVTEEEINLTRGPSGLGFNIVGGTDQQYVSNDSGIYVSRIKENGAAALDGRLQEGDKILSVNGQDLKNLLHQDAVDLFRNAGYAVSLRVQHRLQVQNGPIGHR

SCRIB_1, Q14160 = target: SCRIB_1, Q14160
NHERF3_1, Q5T2W1 = target: T11, NHERF3_1, Q5T2W1
T11 sequence (Q5T2W1 4-100, limits assumed, looked up): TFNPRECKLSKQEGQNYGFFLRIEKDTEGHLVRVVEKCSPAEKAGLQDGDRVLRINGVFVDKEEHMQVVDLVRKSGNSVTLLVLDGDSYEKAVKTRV

MAGI1_2, Q96QZ7 = target: MAGI1_2, Q96QZ7
NHERF2_2, Q15599 = target: NHERF2_2, Q15599
Chain of NHERF2_2, Q15599 (Q15599 142-238): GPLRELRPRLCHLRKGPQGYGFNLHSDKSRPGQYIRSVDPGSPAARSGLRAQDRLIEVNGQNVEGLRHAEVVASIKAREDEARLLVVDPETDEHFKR

Chain of MAGI2_3, Q86UL8 (Q86UL8 600-682): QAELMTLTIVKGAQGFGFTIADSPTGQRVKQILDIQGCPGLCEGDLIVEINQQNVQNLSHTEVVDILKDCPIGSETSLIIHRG
Chain of PDZRN4_1, Q6ZMN7 (Q6ZMN7 213-318): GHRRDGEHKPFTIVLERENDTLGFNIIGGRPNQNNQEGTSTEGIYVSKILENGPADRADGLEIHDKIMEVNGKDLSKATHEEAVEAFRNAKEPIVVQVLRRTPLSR
Chain of TJP1_2, Q07157 (Q07157 181-274): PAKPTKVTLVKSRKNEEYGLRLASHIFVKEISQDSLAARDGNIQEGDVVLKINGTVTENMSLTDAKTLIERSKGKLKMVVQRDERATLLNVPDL
Chain of LNX1_1, Q8TBB1 (Q8TBB1 261-371): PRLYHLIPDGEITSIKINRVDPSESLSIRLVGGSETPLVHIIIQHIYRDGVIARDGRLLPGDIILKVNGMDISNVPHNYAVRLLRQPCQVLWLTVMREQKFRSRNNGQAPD
Chain of NHERF4_2, Q86UT5 (Q86UT5 220-308): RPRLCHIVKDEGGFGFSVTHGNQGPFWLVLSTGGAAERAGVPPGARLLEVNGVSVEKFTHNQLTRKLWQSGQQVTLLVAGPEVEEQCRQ
Chain of MAST1, Q9Y2H9 (Q9Y2H9 962-1065): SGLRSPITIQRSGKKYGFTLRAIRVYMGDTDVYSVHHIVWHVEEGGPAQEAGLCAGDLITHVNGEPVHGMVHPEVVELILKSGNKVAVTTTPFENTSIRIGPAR
Chain of GORASP1, Q9BQQ3 (Q9BQQ3 1-208): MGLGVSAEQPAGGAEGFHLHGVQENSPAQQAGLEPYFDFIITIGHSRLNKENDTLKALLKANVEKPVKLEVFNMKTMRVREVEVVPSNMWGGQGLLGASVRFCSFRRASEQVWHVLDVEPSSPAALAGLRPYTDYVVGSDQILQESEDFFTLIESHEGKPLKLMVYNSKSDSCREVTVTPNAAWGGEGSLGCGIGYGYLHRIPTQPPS
Chain of MAGI1_2, Q96QZ7 (Q96QZ7 456-580): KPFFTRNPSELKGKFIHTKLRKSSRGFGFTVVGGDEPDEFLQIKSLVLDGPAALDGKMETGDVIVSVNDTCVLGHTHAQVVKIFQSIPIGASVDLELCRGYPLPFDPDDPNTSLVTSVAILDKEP
Chain of Inadl_8, Q8NI35 (Q8NI35 1425-1530): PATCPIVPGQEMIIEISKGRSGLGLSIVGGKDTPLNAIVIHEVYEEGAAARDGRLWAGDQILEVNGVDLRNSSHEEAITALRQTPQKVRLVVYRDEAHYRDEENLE
Chain of DLG4_1, P78352 (P78352 62-152): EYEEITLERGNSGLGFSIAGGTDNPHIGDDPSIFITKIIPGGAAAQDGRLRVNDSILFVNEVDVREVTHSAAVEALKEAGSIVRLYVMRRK
Chain of FRMPD3, Q5JV73 (Q5JV73 12-100): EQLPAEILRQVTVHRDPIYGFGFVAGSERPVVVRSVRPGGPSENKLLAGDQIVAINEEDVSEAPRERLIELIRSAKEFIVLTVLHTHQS
Chain of DLG4_2, P78352 (P78352 155-259): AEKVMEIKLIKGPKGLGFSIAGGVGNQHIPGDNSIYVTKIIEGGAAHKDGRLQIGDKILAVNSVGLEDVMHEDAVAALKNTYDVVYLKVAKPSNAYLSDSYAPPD
Chain of SCRIB_1, Q14160 (Q14160 718-814): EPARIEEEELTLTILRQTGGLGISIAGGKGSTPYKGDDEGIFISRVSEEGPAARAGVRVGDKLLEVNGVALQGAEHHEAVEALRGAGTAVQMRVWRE
Chain of PTPN3, P26045 (P26045 505-587): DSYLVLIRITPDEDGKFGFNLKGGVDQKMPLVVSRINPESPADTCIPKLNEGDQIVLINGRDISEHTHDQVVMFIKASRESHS

- pKd (PTPN3, P26045): 4.38
- pKd (PDZRN4_1, Q6ZMN7): 3.83
- pKd (LNX2_2, Q8N448): 3.93
- pKd (DLG4_2, P78352): 5.44
- pKd (Inadl_8, Q8NI35): 3.53
- pKd (SNTG1, Q9NSN8): 4.89
- pKd (GORASP1, Q9BQQ3): below the threshold
- pKd (FRMPD3, Q5JV73): below the threshold
- pKd (NHERF3_4, Q5T2W1): below the threshold
- pKd (MPP2, Q14168): below the threshold
- pKd (GORASP2, Q9H8Y8): 4.25
- pKd (RHPN1, Q8TCX5): 4.18
- pKd (MAST1, Q9Y2H9): 4.39
- pKd (DFNB31_3, Q9P202): below the threshold
- pKd (MAGI2_3, Q86UL8): 3.53
- pKd (DLG3_2, Q92796): 5.61
- pKd (TJP1_2, Q07157): below the threshold
- pKd (SHANK1, Q9Y566): below the threshold
- pKd (LNX1_1, Q8TBB1): 4.03
- pKd (DLG4_1, P78352): 5.13
- pKd (LIN7C, Q9NUP9): below the threshold
- pKd (NHERF4_2, Q86UT5): below the threshold
- pKd (SYNJ2BP, P57105): 4.8
- pKd (SCRIB_1, Q14160): 4.58
- pKd (NHERF3_1, Q5T2W1): below the threshold
- pKd (MAGI1_2, Q96QZ7): 3.9
- pKd (NHERF2_2, Q15599): below the threshold
B1: ARHGEF16, Q5VV41 (peptide)
chain: MERLRVETDV

- pKd (PTPN3, P26045): 5.12
- pKd (PDZRN4_1, Q6ZMN7): 4.81
- pKd (LNX2_2, Q8N448): below the threshold
- pKd (DLG4_2, P78352): 4.96
- pKd (Inadl_8, Q8NI35): below the threshold
- pKd (SNTG1, Q9NSN8): 5.4
- pKd (GORASP1, Q9BQQ3): below the threshold
- pKd (FRMPD3, Q5JV73): below the threshold
- pKd (NHERF3_4, Q5T2W1): below the threshold
- pKd (MPP2, Q14168): below the threshold
- pKd (GORASP2, Q9H8Y8): below the threshold
- pKd (RHPN1, Q8TCX5): 4.35
- pKd (MAST1, Q9Y2H9): 4.57
- pKd (DFNB31_3, Q9P202): below the threshold
- pKd (MAGI2_3, Q86UL8): 4.45
- pKd (DLG3_2, Q92796): 4.88
- pKd (TJP1_2, Q07157): below the threshold
- pKd (SHANK1, Q9Y566): 4.3
- pKd (LNX1_1, Q8TBB1): below the threshold
- pKd (DLG4_1, P78352): 4.72
- pKd (LIN7C, Q9NUP9): 4.49
- pKd (NHERF4_2, Q86UT5): below the threshold
- pKd (SYNJ2BP, P57105): 5.31
- pKd (SCRIB_1, Q14160): 4.71
- pKd (NHERF3_1, Q5T2W1): 5.14
- pKd (MAGI1_2, Q96QZ7): below the threshold
- pKd (NHERF2_2, Q15599): 4.01
B2: DGKZ, Q13574 (peptide)
chain: IQREDQETAV

- pKd (PTPN3, P26045): 5.11
- pKd (PDZRN4_1, Q6ZMN7): below the threshold
- pKd (LNX2_2, Q8N448): 3.92
- pKd (DLG4_2, P78352): 5.55
- pKd (Inadl_8, Q8NI35): below the threshold
- pKd (SNTG1, Q9NSN8): 5.68
- pKd (GORASP1, Q9BQQ3): below the threshold
- pKd (FRMPD3, Q5JV73): below the threshold
- pKd (NHERF3_4, Q5T2W1): below the threshold
- pKd (MPP2, Q14168): below the threshold
- pKd (GORASP2, Q9H8Y8): below the threshold
- pKd (RHPN1, Q8TCX5): 4.91
- pKd (MAST1, Q9Y2H9): 5.15
- pKd (DFNB31_3, Q9P202): below the threshold
- pKd (MAGI2_3, Q86UL8): 3.93
- pKd (DLG3_2, Q92796): 5.71
- pKd (TJP1_2, Q07157): below the threshold
- pKd (SHANK1, Q9Y566): below the threshold
- pKd (LNX1_1, Q8TBB1): 4.51
- pKd (DLG4_1, P78352): 5.11
- pKd (LIN7C, Q9NUP9): 4.05
- pKd (NHERF4_2, Q86UT5): below the threshold
- pKd (SYNJ2BP, P57105): 4.35
- pKd (SCRIB_1, Q14160): 5.32
- pKd (NHERF3_1, Q5T2W1): below the threshold
- pKd (MAGI1_2, Q96QZ7): below the threshold
- pKd (NHERF2_2, Q15599): 3.97
B3: PBK, Q96KB5 (peptide)
chain: HIVEALETDV
